Laboratory results published in publication PMC6076278.

Columns and labels:
[1] = molecular target: Glutamine synthetase from Helicobacter pylori (Helicobacter pylori) (UniProt P94845); assay: crystal structure; apo Hpy GS; crystals in 10% (v/v) PEG 6,000, 100 mM HEPES pH 7.0, 50 mM choline; 2.8 Å; hexamer in the asymmetric unit, dodecamer generated by two-fold symmetry
[2] = molecular target: Glutamine synthetase from Helicobacter pylori (Helicobacter pylori) (UniProt P94845); assay: crystal structure; Hpy GS mixed with 5 mM ATP, 5 mM PPT, 5 mM magnesium chloride; crystals in 2.0 M sodium formate, 100 mM sodium citrate pH 5.0; 2.9 Å; twelve subunits in the asymmetric unit

## Glutamine synthetase from Helicobacter pylori (from UniProt P94845 1-481) (enzyme)
[1]
  stoichiometry N: 12
[2]
  stoichiometry N: 12
